Where a chain is given by its changes, count along the chain named. “And” between values parts separate entries of the source, which are not always exact repeats. Equal values may be shown once. One block for each binder: values may come before it.
Tests used:
[1] = target: T1, human c-Met, membrane-bound on cells (human, UniProt P08581 25-1390); assay: flow cytometry on A431 cells (PE goat anti-human IgG); bottom panel
T1 construct: whole, on cells; A431 cells carry on average 30,000 copies of c-Met per cell (Qifi); also called c-Met expressed on A431 cells; c-Met on A549 cells
Method: (§1) The binding of anti-c-Met antibodies and monovalent forms thereof (also termed “UniBody molecules” herein, see Example 5) to A431 cells expressing membrane-bound c-Met (purchased at ATCC, CRL-1555) was tested using flow cytometry (FACS Canto II, BD Biosciences). […] Binding of anti-c-Met antibodies and UniBody molecules was detected using a Phycoerythrin-conjugated goat-anti-human IgG antibody (Jackson). IgG1-5D5 was used as positive control antibody, and HuMab-KLH was used as isotype control antibody. EC₅₀ values were determined by means of non-linear regression (sigmoidal dose-response with variable slope) using GraphPad Prism V4.03 software (GraphPad Software, San Diego, Calif., USA).
(§2) Also maximum binding levels were unchanged between IgG1's and UniBody molecules. For antibodies 005, 006, 008, 035, 045 and 058, on the other hand, a more than 2-fold […] as well as a decrease in maximum binding level was observed when comparing IgG1 with their UniBody counterpart. This was most likely due to the […] (Kd) of these antibodies (see Example 14).

[2] = target: T2, recombinant human c-Met extracellular domain (R&D systems) (human, UniProt P08581 25-932); assay: competition ELISA, residual Europium-HGF signal at 615 nm at the lower plateau of the fit; sheet prints no competing mAb ~66000, no HGF-Europium ~600; lower panel
T2 construct: extracellular domain; Bought reagent; also called coated extracellular domain of c-Met; recombinant c-Met
Method: ELISA wells were coated overnight at 4° C. with 0.5 μg/mL recombinant human c-Met extracellular domain (R&D systems, Minneapolis, USA) diluted in PBS. Next, the ELISA wells were washed with PBST (PBS supplemented with 0.05% Tween-20 [Sigma-Aldrich, Zwijndrecht, The Netherlands]) and blocked for one hour at room temperature (RT) with PBST supplemented with 2% (v/v) chicken serum (Gibco, Paisley, Scotland). […] Mean fluorescence intensity at 615 nm was measured using the EnVision 2101 Multilabel reader (PerkinElmer) applying the following settings: Lance/Delfia dual mirror, emission filter 615, excitation filter 340 nm, delay time 400 μs, window 400 μs, 100 flashes, 2000 μs per cycle and bidirectional row-by-row reading. To determine IC₅₀ values, the binding curves were analyzed with non-linear regression (sigmoidal dose-response with variable slope, top-values constrained to a shared value for all data-sets) using GraphPad Prism V4.03 software (GraphPad Software, San Diego, Calif., USA).
FIG. 5 depicts representative examples of HGF binding inhibition curves of anti-c-Met antibodies for binding to the extracellular domain of recombinant human c-Met. 5D5 was used as positive control antibody. All anti-c-Met antibodies in the experiment shown were able to compete with Europium^{3±}-conjugated HGF for binding to recombinant c-Met. […] Without adding Europium³⁺-conjugated HGF, roughly ˜600 relative fluorescent units (RFU) were detected, indicating the signal when maximal inhibition is accomplished. When binding of Europium³⁺-conjugated HGF was not inhibited, approximately ˜66,000 RFU were detected.

[3] = target: T1, human c-Met, membrane-bound on cells; assay: flow cytometry on A431 cells (PE goat anti-human IgG); third panel
Method: as §1, §2

[4] = target: T1, human c-Met, membrane-bound on cells; assay: flow cytometry on A431 cells (PE goat anti-human IgG); second panel
Method: as §1, §2

[5] = target: T3, rhHGF R/Fc Chimera (R&D Systems; Cat.358MT/CF) (human, UniProt P08581 25-932); assay: ELISA on coated rhHGF R/Fc Chimera
T3 construct: Bought reagent; Fc part of the bought chimera not given; not described
Method: c-Met binding properties of the mutants were tested in an ELISA. ELISA plate wells were coated overnight at 4° C. with rhHGF R/Fc Chimera (R&D Systems; Cat.358MT/CF) in PBS (1 μg/mL). Next, the wells were washed with PBST (PBS supplemented with 0.05% Tween-20 [Sigma-Aldrich, Zwijndrecht, The Netherlands]) and blocked for one hour at room temperature (RT) with PBSTC (PBST supplemented 2% [v/v] chicken serum [Gibco, Paisley, Scotland]). Subsequently, the wells were washed with PBST and incubated for one hour at RT with the anti-cMet antibodies and variants serially diluted in PBSTC (10 μg/mL in 4-fold dilutions). […] After washing, the reaction was visualized by a 15 min incubation with 2,2′-azino-bis(3-ethylbenzothiazoline-6-sulfonic acid) (ABTS: dilute one ABTS tablet in 50 mL ABTS buffer [Roche Diagnostics, Almere, The Netherlands]) at RT protected from light. The colorization was stopped by adding an equal volume of oxalic acid (Sigma-Aldrich, Zwijndrecht, The Netherlands). […] at 405 nm was measured on a microtiter plate reader (Biotek Instruments, Winooski, USA).

[6] = target: T1, human c-Met, membrane-bound on cells; assay: flow cytometry on A431 cells (PE goat anti-human IgG); third panel; curve not saturated
Method: as §1, §2

[7] = target: T1, human c-Met, membrane-bound on cells; assay: flow cytometry on A431 cells (PE goat anti-human IgG); top panel
Method: as §1, §2

EC50 [3]: 1.78 nM
B4: anti-c-Met HuMab 035 (IgG1) (antibody, V domains shown)
VH: EVQLVQSGAEVKKPGESLKISCKGSGYSFTSYWIGWVRQMPGKGLEWMGIIYPGDSDTRYSPSFQGQVTISADKSISTAYLQWNSLKASDTAMYYCARQEITGEFDYWGQGTLVTVSS
VL: AIQLTQSPSSLSASVGDRVTITCRASQGISSALAWYQQKPGKAPKLLIYDASSLESGVPSRFSGSGSGTDFTLTISSLQPEDFATYYCQQFNSYPMYTFGQGTKLEIK
notes: also called P1016-035; TH1016-035-D09

EC50 [6]: ~3.19 nM
B7: IgG1-024 (antibody, V domains shown)
VH: EVQLLESGGGLVQPGGSLRLSCVASGFTFSSYAMSWVRQAPGKGLEWVSAISGSSGGSTYYVDSVKGRFTISRANSKNTLYLQMNSLRAEDTAVYYCAKDLDRGWMGYFGYWGQGTLVTVSS
VL: DIQMTQSPSSVSASVGDRVTITCRASQGISSWLAWYQHKPGKAPKLLIYAASSLQSGVPSRFSGSGSGTDFTLTISSLQPEDFATYYCQQANSFPTFGQGTRLEIK
notes: also called TH1016-024; PC1016-024

EC50 [1]: 0.9 nM | Bottom [2]: 12700 RFU
B9: anti-c-Met HuMab 098 (IgG1) (antibody, V domains shown)
VH: QVQLVQSGAEVKKPGASVKVSCKASGYTFTNFGISWVRQAPGQGLEWMGWISAFNGHTDYSQKVQGRVTMTTDTSTSTAYMELRSLRSDDTAVFYCARSHYYGSGSPFDYWGQGTLVTVSS
VL: DIQMTQSPSSLSASVGDRVTITCRASQGISNWLAWYQQKPEKAPKSLIYAASSLQSGVPSRFSGSGSGTDFTLTISSLQPEDFATYYCHQYKSYPWTFGQGTKVEIK
notes: also called TH1016-098; PC1016-098

EC50 [4]: 1.1 nM
B10: IgG1-1016-022 (antibody, V domains shown)
VH: QVQLVESGGGVVQPGRSLRLSCAASGFTFSSYAMHWVRQAPGKGLEWVAVISYDGSNKYYADSVKGRFTISRDNSKNTLYLQMNSLRAEDTAVYYCARELLWFGELWGYFDLWGRGTLVTVSS
VL: DIQMTQSPSSVSASVGDRVTITCRASQGISSWLAWYQHKPGKAPKLLIYAASSLQSGVPSRFSGSGSGTDFTLTISSLQPEDFATYYCQEASSFTWTFGQGTKVEIK
notes: also called TH1016-022; PC1016-022

Second part, the binder before the results:

B1: anti-c-Met HuMab 101 (IgG1) (antibody, V domains shown)
VH: QVQLVQSGGEVKKPGASVKVSCKASGYTFTRHGITWVRQAPGQGLEWMGWISADNGNTNYAQKFQDRVTMTTDTSTSTAYMELRSLRSDDTAVYFCARVFRYFDWLLPYFDYWGQGTLVTVST
VL: not shown
EC50 [1]: 1.03 nM | Bottom [2]: 8380 RFU

B2: anti-c-Met HuMab 045 (IgG1) (antibody, V domains shown)
VH: EVQLLESGGGLVQPGGSLRLSCAASGFTFSSYAMSWVRQAPGKGLEWVSVISGSGGITYYADSVKGRFTISRDNSKNTLYLQMNSLRAEDTAVYYCARDRGWGSDYWGQGTLVTVSS
VL: EIVLTQSPATLSLSPGERATLSCRASQSVSSYLAWYQQKPGQAPRLLIYDASNRATGIPARFSGSGSGTDFTLTISSLEPEDFAVYYCQQRSNWPFTFGPGTKVDIK
notes: also called TH1016-045; PC1016-045
EC50 [3]: 0.692 nM

B3: anti-c-Met HuMab 008 (IgG1) (antibody, V domains shown)
VH: B4 VH with D57E, N84S
VL: AIQLTQSPSSLSASVGDRVTITCRASQGISSALAWYQQKPGKAPKLLIYDASSLESGVPSRFSGSGSGTDFTLTISSLQPEDFATYYCQQFNSYPRTFGQGTKVEIK
notes: also called TH1016-008; PC1016-008
EC50 [4]: 0.554 nM

B5: IgG1-1016-069 (antibody, V domains shown)
VH: QVQLVQSGAEVKKPGASVKVSCETSGYTFTSYGISWVRQAPGHGLEWMGWISAYNGYTNYAQKLQGRVTMTTDTSTSTAYMELRSLRSDDTAVYYCARDLRGTNYFDYWGQGTLVTVSS
VL: B10 VL with S31N, Y36F, Q55L, E90Q, S92N, T95P, W96I, K103R, V104L
notes: also called clone 069; TH1016-069
EC50 [5]: 0.0495 µg/mL and 0.0454 µg/mL | EC50 [1]: 0.547 nM | Bottom [2]: 15000 RFU

B6: anti-c-Met HuMab 181 (IgG1) (antibody, V domains shown)
VH: B5 VH with E23K, T24A, H43Q, A53T, N104A
VL: B10 VL with S31N, Q55L, E90Q, S92N, T95P, W96I, K103R, V104L
notes: also called TH1016-181; PC1016-181
EC50 [1]: 0.679 nM | Bottom [2]: 16300 RFU

B8: anti-c-Met HuMab 005 (IgG1) (antibody, V domains shown)
VH: QVQLVQSGAEVKKPGSSVKVSCKASGGTFSSYGFGWVRQAPGQGLEWMGRISPILGIANYAQMFQGRVTITADKSTSTAYMELSSLRSEDTAVYYCARDVGYDWPDTFDIWGQGTMVIVSS
VL: B9 VL with N31S, S65G, H89Q, K92N, Y94F, W96P
notes: also called TH1016-005; PC1016-005
EC50 [4]: 1.56 nM

B11: anti-c-Met HuMab 006 (IgG1) (antibody, V domains shown)
VH: B8 VH with Y32F, F34I, S52F, I57T, S84T, W104S, P105A, T107A, I118T
VL: B9 VL with N31S, H89Q, K92N, W96P
notes: also called TH1016-006; PC1016-006
EC50 [7]: 2.32 nM | EC50 [4]: 1.92 nM
